# B1: mouse CD137 extracellular domain with hFc tail (mE-hFc) (Fc fusion, UniProt P20334 24-185, looked up)
# chain: VQNSCDNCQPGTFCRKYNPVCKSCPPSTFSSIGGQPNCNICRVCAGYFRFKKFCSSTHNAECECIEGFHCLGPQCTRCEKDCRPGQELTKQGCKTCSLGTFNDQNGTGVCRPWTNCSLDGRSVLKTGTTEKDVVCGPPVVSFSPSTTISVTPEGGPGGHSLQ
# notes: signal peptide in the construct; mouse CD137 (4-1BB), entire extracellular region with its own leader (1-23 aa), CRDI-IV and the hinge-like region (STP), residues 1-185; Runs as a dimer on SDS-PAGE without 2-ME; also called mE-Fc; mCD137-hFc; source: COS-7, transfected (DEAE dextran); expression supernatant, and purified (rProtein A Sepharose); not shown: Fc (human IgG1 hinge-CH2-CH3), …
# Biological target: T1, hCD137L-mFc (human CD137L extracellular domain and mouse IgG-Fc fusion protein) (human, UniProt P41273 50-254)
# T1 construct: human CD137 ligand (4-1BBL), extracellular domain; a silent g to c change at base 405 destroys an AgeI site without any amino acid changed; also called hL; hL-mFc; source: COS-7, transfected, purified (rProtein A Sepharose)
# T1 sequence (P41273 50-254): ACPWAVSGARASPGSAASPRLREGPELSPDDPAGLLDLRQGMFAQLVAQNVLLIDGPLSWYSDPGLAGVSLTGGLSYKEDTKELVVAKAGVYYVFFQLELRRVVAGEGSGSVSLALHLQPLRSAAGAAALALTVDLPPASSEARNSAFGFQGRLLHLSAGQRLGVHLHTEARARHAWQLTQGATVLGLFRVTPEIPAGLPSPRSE
# Test: ELISA; purified hCD137L-mFc coated at 1 µg/ml; expression supernatants of human or mouse CD137-hFc fragments added; goat anti-human IgG-HRP; positive if P/N>2.1
# Conditions: one partner purified
binder,measurement,value
B1,binding relative to that of human CD137,~30%

# — PMC3897701, “Human and Mouse CD137 Have Predominantly Different Binding CRDs to Their Respective Ligands” (PLoS ONE, 2014)
